Read-outs that look alike come from different tables or passages of the source.
What was measured:
Experiment in all cases: cell-based or functional assay
[1] = molecular target: TSHR with Asp203 mutated to Ala expressed in CHO cells (human) (UniProt P16473)
wild type TSHR (human) = wild type TSHR (human) (UniProt P16473)
[2] = molecular target: TSHR with Lys129 mutated to Ala, expressed in CHO cells (human) (UniProt P16473)
[3] = molecular target: TSHR with Arg80 mutated to Ala expressed in CHO cells (human) (UniProt P16473)
[4] = molecular target: TSHR with Arg109 mutated to Ala, expressed in CHO cells (human) (UniProt P16473)
[5] = molecular target: wild type TSHR expressed in CHO cells (human) (UniProt P16473)
[6] = molecular target: human TSHR (thyroid stimulating hormone receptor), full length, expressed in transfected CHO cells (human) (UniProt P16473)
[7] = molecular target: TSHR with Gln235 mutated to Ala expressed in CHO cells (human) (UniProt P16473)
[8] = molecular target: wild type TSHR (human TSH receptor, full length) expressed in CHO cells (human) (UniProt P16473)
[9] = molecular target: TSHR with Asp151 mutated to Ala, expressed in CHO cells (human) (UniProt P16473)

5B3 IgG (antibody)
% inhibition of TSH stimulation: 5B3 10 µg/mL [1]: 0%
% inhibition of TSH stimulation: 5B3 100 µg/mL [1]: 0%
Cyclic AMP, Mutated/wild type (%): 5B3 10 µg/mL + TSH 3 ng/mL [1]: 89%
Cyclic AMP, Mutated/wild type (%): 5B3 100 µg/mL + TSH 3 ng/mL [1]: 84%
% inhibition of TSH stimulation, 5B3 10 µg/mL, wild type TSHR (wild type TSHR (human)): 0%
% inhibition of TSH stimulation, 5B3 100 µg/mL, wild type TSHR (wild type TSHR (human)): 3%
Cyclic AMP produced (pmol/mL), 5B3 10 µg/mL + TSH 3 ng/mL, wild type TSHR (wild type TSHR (human)): 126 pmol/mL
Cyclic AMP produced (pmol/mL), 5B3 100 µg/mL + TSH 3 ng/mL, wild type TSHR (wild type TSHR (human)): 97.3 pmol/mL
% inhibition of TSH stimulation; 5B3 10 µg/mL [2]: 0%
% inhibition of TSH stimulation; 5B3 100 µg/mL [2]: 13%
Cyclic AMP produced; 5B3 10 µg/mL + TSH 3 ng/mL [2]: 50.5 pmol/mL
Cyclic AMP produced; 5B3 100 µg/mL + TSH 3 ng/mL [2]: 42.6 pmol/mL
Mutated/wild type (%) of cyclic AMP produced; 5B3 10 µg/mL + TSH 3 ng/mL [2]: 94%
Mutated/wild type (%) of cyclic AMP produced; 5B3 100 µg/mL + TSH 3 ng/mL [2]: 81%
% inhibition of TSH stimulation; 5B3 10 µg/mL [3]: 0.3%
% inhibition of TSH stimulation; 5B3 100 µg/mL [3]: 4%
Cyclic AMP produced; 5B3 10 µg/mL + TSH 3 ng/mL [3]: 105 pmol/mL
Cyclic AMP produced; 5B3 100 µg/mL + TSH 3 ng/mL [3]: 101 pmol/mL
Mutated/wild type (%) of cyclic AMP produced; 5B3 10 µg/mL + TSH 3 ng/mL [3]: 102%
Mutated/wild type (%) of cyclic AMP produced; 5B3 100 µg/mL + TSH 3 ng/mL [3]: 107%
% inhibition of TSH stimulation; 5B3 10 µg/mL; Experiment 1 [4]: 0%
% inhibition of TSH stimulation; 5B3 10 µg/mL; Experiment 2 [4]: 0%
% inhibition of TSH stimulation; 5B3 100 µg/mL; Experiment 1 [4]: 0%
% inhibition of TSH stimulation; 5B3 100 µg/mL; Experiment 2 [4]: 0%
Cyclic AMP produced; 5B3 10 µg/mL + TSH 3 ng/mL; Experiment 1 [4]: 34.4 pmol/mL
Cyclic AMP produced; 5B3 10 µg/mL + TSH 3 ng/mL; Experiment 2 [4]: 60.6 pmol/mL
Cyclic AMP produced; 5B3 100 µg/mL + TSH 3 ng/mL; Experiment 1 [4]: 34.5 pmol/mL
Cyclic AMP produced; 5B3 100 µg/mL + TSH 3 ng/mL; Experiment 2 [4]: 56.6 pmol/mL
Mutated/wild type (%) of cyclic AMP produced; 5B3 10 µg/mL + TSH 3 ng/mL; Experiment 1 [4]: 52%
Mutated/wild type (%) of cyclic AMP produced; 5B3 10 µg/mL + TSH 3 ng/mL; Experiment 2 [4]: 88%
Mutated/wild type (%) of cyclic AMP produced; 5B3 100 µg/mL + TSH 3 ng/mL; Experiment 1 [4]: 50%
Mutated/wild type (%) of cyclic AMP produced; 5B3 100 µg/mL + TSH 3 ng/mL; Experiment 2 [4]: 85%
% inhibition of TSH stimulation (stimulator given as M22), wild type TSHR; 5B3 10 µg/mL [5]: 0%
% inhibition of TSH stimulation (stimulator given as M22), wild type TSHR; 5B3 100 µg/mL [5]: 0%
% inhibition of TSH stimulation, wild type TSHR; 5B3 10 µg/mL [5]: 0%
% inhibition of TSH stimulation, wild type TSHR; 5B3 100 µg/mL [5]: 0%
% inhibition of TSH stimulation; 5B3 10 µg/mL [5]: 0%
% inhibition of TSH stimulation; 5B3 10 µg/mL; Experiment 1 [5]: 0%
% inhibition of TSH stimulation; 5B3 10 µg/mL; Experiment 2 [5]: 0%
% inhibition of TSH stimulation; 5B3 100 µg/mL [5]: 0%
% inhibition of TSH stimulation; 5B3 100 µg/mL; Experiment 1 [5]: 0%
% inhibition of TSH stimulation; 5B3 100 µg/mL; Experiment 2 [5]: 8%
Cyclic AMP produced; 5B3 10 µg/mL + TSH 3 ng/mL [5]: 103 pmol/mL
Cyclic AMP produced; 5B3 10 µg/mL + TSH 3 ng/mL; Experiment 1 [5]: 82.8 pmol/mL
Cyclic AMP produced; 5B3 10 µg/mL + TSH 3 ng/mL; Experiment 2 [5]: 106 pmol/mL
Cyclic AMP produced; 5B3 100 µg/mL + TSH 3 ng/mL [5]: 94.8 pmol/mL
Cyclic AMP produced; 5B3 100 µg/mL + TSH 3 ng/mL; Experiment 1 [5]: 80.7 pmol/mL
Cyclic AMP produced; 5B3 100 µg/mL + TSH 3 ng/mL; Experiment 2 [5]: 90.4 pmol/mL
Experiment 1: % inhibition of TSH stimulation; 5B3 10 µg/mL [5]: 0%
Experiment 1: % inhibition of TSH stimulation; 5B3 100 µg/mL [5]: 0%
Experiment 1; % inhibition of TSH stimulation; 5B3 10 µg/mL [5]: 0%
Experiment 1; % inhibition of TSH stimulation; 5B3 100 µg/mL [5]: 7%
Experiment 1; cyclic AMP produced; 5B3 10 µg/mL + TSH 3 ng/mL [5]: 79.6 pmol/mL
Experiment 1; cyclic AMP produced; 5B3 100 µg/mL + TSH 3 ng/mL [5]: 72.7 pmol/mL
Experiment 2: % inhibition of TSH stimulation; 5B3 10 µg/mL [5]: 0%
Experiment 2: % inhibition of TSH stimulation; 5B3 100 µg/mL [5]: 0%
Experiment 2; % inhibition of TSH stimulation; 5B3 10 µg/mL [5]: 0%
Experiment 2; % inhibition of TSH stimulation; 5B3 100 µg/mL [5]: 0%
Experiment 2; cyclic AMP produced; 5B3 10 µg/mL + TSH 3 ng/mL [5]: 107 pmol/mL
Experiment 2; cyclic AMP produced; 5B3 100 µg/mL + TSH 3 ng/mL [5]: 101 pmol/mL
% inhibition of TSH stimulation; 5B3 10 µg/mL ([5]; record 2): 0%
% inhibition of TSH stimulation; 5B3 100 µg/mL ([5]; record 2): 0%
Cyclic AMP produced; 5B3 10 µg/mL + TSH 3 ng/mL ([5]; record 2): 83.6 pmol/mL
Cyclic AMP produced; 5B3 100 µg/mL + TSH 3 ng/mL ([5]; record 2): 88 pmol/mL
% Inhibition of K1-18 IgG stimulation; 10 ng/mL K1-18 IgG + 100 µg/mL 5B3 IgG [6]: 0%
% Inhibition of K1-18 stimulation; 10 ng/mL K1-18 + 100 µg/mL 5B3 IgG [6]: 0%
% Inhibition of K1-18 stimulation; 10 ng/mL KM 8 [K1-18] + 10 µg/mL 5B3 IgG [6]: 3.5%
Experiment 1: % inhibition of TSH stimulation; 5B3 10 µg/mL [7]: 0%
Experiment 1: % inhibition of TSH stimulation; 5B3 100 µg/mL [7]: 0%
Experiment 1: Mutated/wild type (%) of cyclic AMP produced; 5B3 10 µg/mL + TSH 3 ng/mL [7]: 80%
Experiment 1: Mutated/wild type (%) of cyclic AMP produced; 5B3 100 µg/mL + TSH 3 ng/mL [7]: 63%
Experiment 2: % inhibition of TSH stimulation; 5B3 10 µg/mL [7]: 14%
Experiment 2: % inhibition of TSH stimulation; 5B3 100 µg/mL [7]: 0%
Experiment 2: Mutated/wild type (%) of cyclic AMP produced; 5B3 10 µg/mL + TSH 3 ng/mL [7]: 77%
Experiment 2: Mutated/wild type (%) of cyclic AMP produced; 5B3 100 µg/mL + TSH 3 ng/mL [7]: 95%
% inhibition of TSH stimulation; 5B3 10 µg/mL [8]: 0%
% inhibition of TSH stimulation; 5B3 10 µg/mL; Experiment 1 [8]: 3%
% inhibition of TSH stimulation; 5B3 10 µg/mL; Experiment 2 [8]: 0%
% inhibition of TSH stimulation; 5B3 100 µg/mL [8]: 0%
% inhibition of TSH stimulation; 5B3 100 µg/mL; Experiment 1 [8]: 0%
% inhibition of TSH stimulation; 5B3 100 µg/mL; Experiment 2 [8]: 0%
Cyclic AMP produced; 5B3 10 µg/mL + TSH 3 ng/mL [8]: 53.9 pmol/mL
Cyclic AMP produced; 5B3 10 µg/mL + TSH 3 ng/mL; Experiment 1 [8]: 65.8 pmol/mL
Cyclic AMP produced; 5B3 10 µg/mL + TSH 3 ng/mL; Experiment 2 [8]: 68.6 pmol/mL
Cyclic AMP produced; 5B3 100 µg/mL + TSH 3 ng/mL [8]: 52.6 pmol/mL
Cyclic AMP produced; 5B3 100 µg/mL + TSH 3 ng/mL; Experiment 1 [8]: 68.5 pmol/mL
Cyclic AMP produced; 5B3 100 µg/mL + TSH 3 ng/mL; Experiment 2 [8]: 66.5 pmol/mL
% inhibition of TSH stimulation, mutated TSHR; 5B3 10 µg/mL [9]: 11%
% inhibition of TSH stimulation, mutated TSHR; 5B3 100 µg/mL [9]: 0%
Mutated/wild type (%) of cyclic AMP produced; test sample: 5B3 10 µg/mL + TSH (3 ng/mL) [9]: 53%
Mutated/wild type (%) of cyclic AMP produced; test sample: 5B3 100 µg/mL + TSH (3 ng/mL) [9]: 57%
